T1: human TREM2 (human, UniProt Q9NZC2 19-230)
T1 construct: on THP-1 WT cells and M2a-like macrophages (endogenous) and on CHO or HEK293T cells overexpressing human TREM2 with DAP12; also called hTREM2
T1 sequence: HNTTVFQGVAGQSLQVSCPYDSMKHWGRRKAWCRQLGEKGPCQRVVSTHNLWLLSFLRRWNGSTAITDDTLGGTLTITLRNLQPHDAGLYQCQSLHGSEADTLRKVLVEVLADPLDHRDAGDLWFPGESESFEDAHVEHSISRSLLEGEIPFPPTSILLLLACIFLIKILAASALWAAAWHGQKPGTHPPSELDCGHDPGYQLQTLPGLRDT

T2: cynomolgus TREM2 (cynomolgus, UniProt A0A2K5UY34 49-260)
T2 construct: also called cynoTREM2; cTREM2
T2 sequence: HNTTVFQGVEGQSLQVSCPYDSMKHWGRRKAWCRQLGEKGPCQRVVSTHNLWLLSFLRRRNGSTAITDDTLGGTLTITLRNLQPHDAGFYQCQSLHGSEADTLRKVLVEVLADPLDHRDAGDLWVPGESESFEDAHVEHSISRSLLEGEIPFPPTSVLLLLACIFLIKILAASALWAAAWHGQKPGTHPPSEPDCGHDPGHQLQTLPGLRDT

T3: mouse TREM2 (mouse, UniProt Q99NH8 19-227)
T3 construct: whole, on cells
T3 sequence (looked up): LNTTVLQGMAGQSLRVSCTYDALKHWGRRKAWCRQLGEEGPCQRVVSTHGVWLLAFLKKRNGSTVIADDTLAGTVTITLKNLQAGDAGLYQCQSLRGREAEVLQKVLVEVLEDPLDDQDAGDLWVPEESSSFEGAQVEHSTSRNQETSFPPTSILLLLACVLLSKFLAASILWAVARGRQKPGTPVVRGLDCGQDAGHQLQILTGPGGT


Tests used:
[1] = target: T1, human TREM2; experiment: flow cytometry, THP-1 WT vs THP-1 TREM2 KO cells, 10 ug/ml
Procedure: (§1) In order to test specificity of selected antibodies to TREM2, binding was tested by flow cytometry on THP-1 TREM2 KO (clone, produced using CRISPR technology in house) and on THP-1 WT. Cells were incubated with selected anti-TREM2 antibodies (final concentration of 10 μg/ml) for 30 min at 4° C. After washing, bound antibodies were detected with a secondary anti-human IgG Fc PE-labelled for 30 min at 4° C. Fluorescence intensity was measured by flow cytometry.

[2] = target: T1, human TREM2; experiment: cell-based or functional assay
[3] = target: T1, human TREM2; experiment: flow cytometry, THP-1 WT cells, 10 ug/ml
Procedure: as §1

[4] = target: T2, cynomolgus TREM2; experiment: MFI on CHO cells over-expressing cynoTREM2-DAP12
Procedure: (§2) Cross-reactivity of anti-TREM2 antibodies to cynomolgus TREM2 (cynoTREM2) was assessed using CHO over-expressing cynoTREM2-DAP12 (Table 22). Benchmark antibodies, AB52 and PN-37012, were examined for comparison.

[5] = target: T1, human TREM2; experiment: cell-based or functional assay; remark: listed apart in the source
[6] = target: T1, human TREM2; experiment: flow cytometry, M2a-like macrophages
Procedure: (§3) M2a-like macrophages were produced in vitro from monocytes of healthy donors. Briefly, after PBMCs isolation from peripheral blood using Lymphoprep™ gradient, CD14+ cells were purified and seeded in presence of MCSF 50 ng/ml for 6 days. Macrophages were then cultured with IL-13 and IL-4 at a concentration of 20 ng/ml for two additional days and then used for a cell-based binding assay.
(§4) M2a-like macrophages were incubated with anti-TREM2 antibodies (dose-response curve with 11 concentrations from 10 μg/ml to 0.0001 μg/ml) for 30 min at 4° C. After washing, bound antibodies were detected with a secondary anti-human IgG Fc PE-labelled for 30 min at 4° C. Fluorescence intensity was measured by flow cytometry. Equilibrium dissociation constant (kD) was then calculated for each antibody using median MFI normalized over isotype control.

[7] = target: T2, cynomolgus TREM2; experiment: MFI on CHO cells over-expressing cynoTREM2-DAP12 vs CHO empty vector
Procedure: as §2

[8] = target: T1, human TREM2; experiment: flow cytometry, competition with LDL-Alexafluor-488 on CHO cells overexpressing human TREM2/DAP12
Procedure: Exemplary anti-TREM2 antibodies were tested in order to characterize their ability to enter in competition with TREM2 ligand, LDL, on CHO overexpressing human TREM2/DAP12. Antibodies (dose response curves from 66.65 nM to 0.07 nM) were incubated for 30 min with cells in a soluble fashion, followed by an incubation with LDL coupled with Alexafluor-488 (at 1 μg/mL final) for 30 min. Finally, after 2 washes, cells were acquired on flow cytometer. The median MFI of Alexafluor-488 was used to plot the graphs. Benchmark antibody MOR044746 was used as positive control.

[9] = target: T1, human TREM2; experiment: flow cytometry, M2a-like macrophages, dose-response
Procedure: as §3, §4

[10] = target: T3, mouse TREM2; experiment: MFI on CT26 cells over-expressing mouse TREM2 and DAP12 vs CT26 empty vector
Procedure: (§5) Cross-reactivity to mouse TREM2 was assessed using CT26 cells over-expressing mouse TREM2 and DAP12 (Table 23). Eight anti-TREM2 antibodies and both benchmark antibodies were considered cross-reactive to mouse TREM2 (MFI higher than isotype control and fold change of CT26-TREM2 over the CT26 Empty Vector higher than 5). The remaining anti-TREM2 antibodies were considered as being low to not cross-reactive (fold change less than 5). EOS006171 was not tested due to clear non-cross-reactivity preliminary data by octet (data not shown).

[11] = target: T3, mouse TREM2; experiment: MFI on CT26 cells over-expressing mouse TREM2 and DAP12
Procedure: as §5

[12] = target: T3, mouse TREM2; experiment: MFI on CT26 cells over-expressing mouse TREM2 and DAP12; column 'Considered cross-reactive'
Procedure: as §5

MFI Fold change (THP-1 WT over THP-1 TREM2 KO) [1] [fold] | Stabilization ratio (Mean of 2 replicates) [2] [ratio] | Fold over isotype control THP1 WT [3] [fold] | Binding to CHO-cTREM2 MFI [4] [MFI] | Fold over isotype control at 66 nM [5] [fold] | Fold over isotype [6] [fold] | MFI Fold change (CHO-cTREM2 over CHO-EV) [7] [fold] | IC50 [8] [nM] | Kd [9] [nM] | MFI Fold change (CT26-TREM2 over CT26-EV) [10] [fold] | Binding to CT26-TREM2 MFI [11] [MFI] | pSYK/TotSYK EC50 (nM) [5] [nM] | Binder | binding result [12]
4.3 | 0.55 | 3.7 | 14200 | 1.16 | 12.9 | 277 | 0.265 | 0.32 | 21.4 | 6540 | – | EOS006164 (antibody, V domains shown) VH: EVQLVESGGGLVQPGRSLRLSCTASGFTFDDYTMSWFRQAPGKGLEWVGFIGSKAYSATTEYTASVKGRFTISRDGSKSIAYLQMNSLKTEDTAVYYCARGKRYSYTYWTPAFDVWGQGTMVTVSS VL: DIQMTQSPSSLSASVGDRVTITCQASQDITNYLNWYQQKPGKAPKLLIYDASNLETGVPSRFSGSGSGTDFTFTISSLQPEDIATYYCQEYDSYITFGGGTKVEIK | –
3.3 | 0.41 | 3.3 | 14000 | 1.34 | 8.2 | 329 | 0.145 | 0.3 | 11 | 3940 | 1.08 | EOS006173 (antibody, V domains shown, also called EOS061730) VH: EVQLVESGGGLVQPGRSLRLSCTASGFTFGDYAMSWFRQAPGKGLEWVGFIGSKAYGGTTEYTASVKGRFTISRDGSKSIAYLQMNSLKTEDTAVYYCARGKRRDYGYWHPAFDVWGQGTMVTVSS VL: DIQMTQSPSSLSASVGDRVTITCQASQDITNYLNWYQQKPGKAPKLLIYDASNLETGVPSRFSGSGSGTDFTFTISSLQPEDIATYYCQEYDQYLTFGGGTKVEIK | –
6.8 | 0.44 | 3.3 | 19600 | 0.95 | 17.3 | 355 | 0.195 | 0.19 | 21.4 | 8680 | – | EOS006177 (antibody, V domains shown) VH: QVQLQESGPGLVKPSGTLSLTCAVSGGSISDSAWWSWVRQPPGKGLEWIGEIYHDADTNYNPSLKSRVTISVDKSKNQFSLKLSSVTAADTAVYYCARDTKYWGGMDVWGQGTTVTVSS VL: DIQMTQSPSSLSASVGDRVTITCQASQDISNYLNWYQQKPGKAPKLLIYDASNLATGVPSRFSGSGSGTDFTFTISSLQPEDIATYYCQQYVEAPTFGGGTKVEIK | –
5.1 | 0.46 | 4 | 15700 | 0.897 | 14.9 | 323 | 0.3 | 0.09 | 34.3 | 10100 | – | EOS006174 (antibody, V domains shown) VH: EVQLVESGGGLVQPGRSLRLSCTASGFTFGEYTMSWFRQAPGKGLEWVGFIGSKAYAGTTEYTASVKGRFTISRDGSKSIAYLQMNSLKTEDTAVYYCARGKRYSYGGWVPAFDVWGQGTMVTVSS VL: DIQMTQSPSSLSASVGDRVTITCQASQDITNYLNWYQQKPGKAPKLLIYDASNLETGVPSRFSGSGSGTDFTFTISSLQPEDIATYYCQEYDSYLAFGGGTKVEIK | –
– | – | – | – | – | – | – | – | – | 1.8 | 1890 | – | EOS006180 (antibody, V domains shown) VH: not shown VL: EIVLTQSPGTLSLSPGERATLSCRASQSVSSSFLAWYQQKPGQAPRLLIYGASSRATGIPDRFSGSGSGTDFTLTISRLEPEDFAVYYCQQYYGLPITFGGGTKVEIK | no binding (tested: fold change less than 5)
